In article PMC4359947 (The international journal of biochemistry & cell biology, 2015):
Ends that are not written are not given here.

Molecular target: MAGI-1 PDZ1 domain, Cy3-labelled, tag-free (Cy3 label (approximately 1 dye/peptide))
Assay: FRET or BRET

## GAIPVMIPAQSKDGSIV (also: Cy5 label (approximately 1 dye/peptide), site not given here) [CAR (CAR^Ex7) C-terminus, Cy5-labelled, tag-free]
  Kd: > 500 nM
